# Measurements: publication PMC10968512, “Cry Toxins Use Multiple ATP-Binding Cassette Transporter Subfamily C Members as Low-Efficiency Receptors in Bombyx mori” (Biomolecules, 2024)
# B1: Cry8Ca toxin (trypsin-activated) (domain or fragment)
# chain: ISAQDAVGTGIDIVSTIISGLGIPVLGEVFSILGSLIGLLWPSNNENVWQIFMNRVEELIDQKILDSVRSRAIADLANSRIAVEYYQNALEDWRKNPHSTRSAALVKERFGNAEAILRTNMGSFSQTNYETPLLPTYAQAASLHLLVMRDVQIYGKEWGYPQNDIDLFYKEQVSYTARYSDHCVQWYNAGLNKLRGTGAKQWVDYNRFRREMNVMVLDLVALFPNYDARIYPLETNAELTREIFTDPVGSYVTGQSSTLISWYDMIPAALPSFSTLENLLRKPDFFTLLQEIRMYTSFRQNGTIEYYNYWGGQRLTLSYIYGSSFNKYSGVLAGAEDIIPVGQNDIYRVVWTYIGRYTNSLLGVNPVTFYFSNNTQKTYSKPKQFAGGIKTIDSGEELTYENYQSYSHRVSYITSFEIKSTGGTVLGVVPIFGWTHSSASRNNFIYATKISQIPINKASRTSGGAVWNFQEGLYNGGPVMKLSGSGSQVINLRVATDAKGASQRYRIRIRYASDRAGKFTISSRSPENPATYSASIAYTNTMSTNASLTYSTFAYAESGPINLGISGSSRTFDISITKEAGAANLYIDRIEF
# B2: Cry1Da toxin (trypsin-activated) (domain or fragment)
# chain: ETGNTVADISLGLINFLYSNFVPGGGFIVGLLELIWGFIGPSQWDIFLAQIEQLISQRIEEFARNQAISRLEGLSNLYKVYVRAFSDWEKDPTNPALREEMRIQFNDMNSALITAIPLFRVQNYEVALLSVYVQAANLHLSILRDVSVFGERWGYDTATINNRYSDLTSLIHVYTNHCVDTYNQGLRRLEGRFLSDWIVYNRFRRQLTISVLDIVAFFPNYDIRTYPIQTATQLTREVYLDLPFINENLSPAASYPTFSAAESAIIRSPHLVDFLNSFTIYTDSLARYAYWGGHLVNSFRTGTTTNLIRSPLYGREGNTERPVTITASPSVPIFRTLSYITGLDNSNPVAGIEGVEFQNTISRSIYRKSGPIDSFSELPPQDASVSPAIGYSHRLCHATFLERISGPRIAGTVFSWTHRSASPTNEVSPSRITQIPWVKAHTLASGASVIKGPGFTGGDILTRNSMGELGTLRVTFTGRLPQSYYIRFRYASVANRSGTFRYSQPPSYGISFPKTMDAGEPLTSRSFAHTTLFTPITFSRAQEEFDLYIQSGVYIDRIEFIPVTAT
# B3: Cry1Aa toxin (trypsin-activated) (domain or fragment)
# chain: not shown
# B4: Cry9Aa toxin (trypsin-activated) (domain or fragment)
# chain: YPLANNPYSSALNLNSCQNSSILNWINIIGDAAKEAVSIGTTIVSLITAPSLTGLISIVYDLIGKVLGGSSGQSISDLSICDLLSIIDLRVSQSVLNDGIADFNGSVLLYRNYLEALDSWNKNPNSASAEELRTRFRIADSEFDRILTRGSLTNGGSLARQNAQILLLPSFASAAFFHLLLLRDATRYGTNWGLYNATPFINYQSKLVELIELYTDYCVHWYNRGFNELRQRGTSATAWLEFHRYRREMTLMVLDIVASFSSLDITNYPIETDFQLSRVIYTDPIGFVHRSSLRGESWFSFVNRANFSDLENAIPNPRPSWFLNNMIISTGSLTLPVSPSTDRARVWYGSRDRISPANSQFITELISGQHTTATQTILGRNIFRVDSQACNLNDTTYGVNRAVFYHDASEGSQRSVYEGYIRTTGIDNPRVQNINTYLPGENSDIPTPEDYTHILSTTINLTGGLRQVASNRRSSLVMYGWTHKSLARNNTINPDRITQIPLTKVDTRGTGVSYVNDPGFIGGALLQRTDHGSLGVLRVQFPLHLRQQYRIRVRYASTTNIRLSVNGSFGTISQNLPSTMRLGEDLRYGSFAIREFNTSIRPTASPDQIRLTIEPSFIRQEVYVDRIEFIPVNPT
# Biological target: T1, Bombyx mori ABC transporter subfamily C member 4, BmABCC4-FLAG (Bombyx mori)
# T1 construct: BmABCC4 (MRP4) of Bombyx mori, protein XP_021205339.2, cDNA XM_021349664.2 amplified from midgut cDNA; also called MRP4 (name in the NCBI)
# Assay: SPR; BIACORE; BmABCC immobilised on a CM5 sensor chip; toxins (or BSA) in PBST (PBS with 0.005% Tween 20) at 500 and/or 1000 nM; 120 s association, 240 s dissociation; fitted with two-state reaction models (BIAevaluation ver.4.1)
# Settings: both partners purified
# T1 sequence (main, as listed by the source): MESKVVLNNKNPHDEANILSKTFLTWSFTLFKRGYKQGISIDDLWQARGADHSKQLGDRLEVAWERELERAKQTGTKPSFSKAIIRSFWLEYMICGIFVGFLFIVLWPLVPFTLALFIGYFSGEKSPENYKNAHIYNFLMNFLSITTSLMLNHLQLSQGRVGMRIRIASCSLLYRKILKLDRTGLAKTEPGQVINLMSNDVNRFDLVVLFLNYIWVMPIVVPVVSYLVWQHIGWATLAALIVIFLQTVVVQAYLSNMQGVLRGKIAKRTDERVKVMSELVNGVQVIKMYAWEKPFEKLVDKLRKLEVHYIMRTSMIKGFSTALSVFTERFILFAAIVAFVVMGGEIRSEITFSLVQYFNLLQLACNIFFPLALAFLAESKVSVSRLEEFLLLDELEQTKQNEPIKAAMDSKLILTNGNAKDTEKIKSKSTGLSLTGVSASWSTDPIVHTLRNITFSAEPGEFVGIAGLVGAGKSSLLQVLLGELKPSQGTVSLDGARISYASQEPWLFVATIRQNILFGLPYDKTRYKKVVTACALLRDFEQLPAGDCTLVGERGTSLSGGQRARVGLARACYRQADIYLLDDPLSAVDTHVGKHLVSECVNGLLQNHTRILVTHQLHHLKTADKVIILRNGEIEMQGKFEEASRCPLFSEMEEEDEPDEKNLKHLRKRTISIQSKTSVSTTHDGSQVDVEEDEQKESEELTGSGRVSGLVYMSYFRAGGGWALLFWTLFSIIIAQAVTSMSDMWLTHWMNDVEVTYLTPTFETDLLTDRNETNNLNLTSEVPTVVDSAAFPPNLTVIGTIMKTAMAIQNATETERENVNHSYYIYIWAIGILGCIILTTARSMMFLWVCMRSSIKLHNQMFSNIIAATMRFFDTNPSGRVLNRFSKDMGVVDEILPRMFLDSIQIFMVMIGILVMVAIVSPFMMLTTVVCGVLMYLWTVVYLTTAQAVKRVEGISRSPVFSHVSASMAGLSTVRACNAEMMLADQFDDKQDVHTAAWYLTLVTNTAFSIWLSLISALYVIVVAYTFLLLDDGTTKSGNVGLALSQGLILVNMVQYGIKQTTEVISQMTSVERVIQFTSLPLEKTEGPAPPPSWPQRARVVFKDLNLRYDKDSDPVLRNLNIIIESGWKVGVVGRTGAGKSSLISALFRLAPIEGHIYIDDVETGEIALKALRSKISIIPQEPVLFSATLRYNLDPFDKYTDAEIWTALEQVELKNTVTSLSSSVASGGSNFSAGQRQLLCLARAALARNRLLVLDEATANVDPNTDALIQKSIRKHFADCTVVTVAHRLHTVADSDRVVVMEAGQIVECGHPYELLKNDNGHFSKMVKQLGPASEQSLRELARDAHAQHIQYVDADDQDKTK
row,Binder,Kd
1,B1,61.7 nM
2,B2,63.7 nM
3,B3,267 nM

# Biological target: T2, Bombyx mori ABC transporter subfamily C member 1, BmABCC1-FLAG (Bombyx mori)
# T2 construct: BmABCC1 (MRP1) of Bombyx mori, protein XP_012546136.1, cDNA XM_012690682.3 amplified from midgut cDNA; also called MRP1 (name in the NCBI)
# Assay: as above
# Settings: both partners purified
# T2 sequence (main, as listed by the source): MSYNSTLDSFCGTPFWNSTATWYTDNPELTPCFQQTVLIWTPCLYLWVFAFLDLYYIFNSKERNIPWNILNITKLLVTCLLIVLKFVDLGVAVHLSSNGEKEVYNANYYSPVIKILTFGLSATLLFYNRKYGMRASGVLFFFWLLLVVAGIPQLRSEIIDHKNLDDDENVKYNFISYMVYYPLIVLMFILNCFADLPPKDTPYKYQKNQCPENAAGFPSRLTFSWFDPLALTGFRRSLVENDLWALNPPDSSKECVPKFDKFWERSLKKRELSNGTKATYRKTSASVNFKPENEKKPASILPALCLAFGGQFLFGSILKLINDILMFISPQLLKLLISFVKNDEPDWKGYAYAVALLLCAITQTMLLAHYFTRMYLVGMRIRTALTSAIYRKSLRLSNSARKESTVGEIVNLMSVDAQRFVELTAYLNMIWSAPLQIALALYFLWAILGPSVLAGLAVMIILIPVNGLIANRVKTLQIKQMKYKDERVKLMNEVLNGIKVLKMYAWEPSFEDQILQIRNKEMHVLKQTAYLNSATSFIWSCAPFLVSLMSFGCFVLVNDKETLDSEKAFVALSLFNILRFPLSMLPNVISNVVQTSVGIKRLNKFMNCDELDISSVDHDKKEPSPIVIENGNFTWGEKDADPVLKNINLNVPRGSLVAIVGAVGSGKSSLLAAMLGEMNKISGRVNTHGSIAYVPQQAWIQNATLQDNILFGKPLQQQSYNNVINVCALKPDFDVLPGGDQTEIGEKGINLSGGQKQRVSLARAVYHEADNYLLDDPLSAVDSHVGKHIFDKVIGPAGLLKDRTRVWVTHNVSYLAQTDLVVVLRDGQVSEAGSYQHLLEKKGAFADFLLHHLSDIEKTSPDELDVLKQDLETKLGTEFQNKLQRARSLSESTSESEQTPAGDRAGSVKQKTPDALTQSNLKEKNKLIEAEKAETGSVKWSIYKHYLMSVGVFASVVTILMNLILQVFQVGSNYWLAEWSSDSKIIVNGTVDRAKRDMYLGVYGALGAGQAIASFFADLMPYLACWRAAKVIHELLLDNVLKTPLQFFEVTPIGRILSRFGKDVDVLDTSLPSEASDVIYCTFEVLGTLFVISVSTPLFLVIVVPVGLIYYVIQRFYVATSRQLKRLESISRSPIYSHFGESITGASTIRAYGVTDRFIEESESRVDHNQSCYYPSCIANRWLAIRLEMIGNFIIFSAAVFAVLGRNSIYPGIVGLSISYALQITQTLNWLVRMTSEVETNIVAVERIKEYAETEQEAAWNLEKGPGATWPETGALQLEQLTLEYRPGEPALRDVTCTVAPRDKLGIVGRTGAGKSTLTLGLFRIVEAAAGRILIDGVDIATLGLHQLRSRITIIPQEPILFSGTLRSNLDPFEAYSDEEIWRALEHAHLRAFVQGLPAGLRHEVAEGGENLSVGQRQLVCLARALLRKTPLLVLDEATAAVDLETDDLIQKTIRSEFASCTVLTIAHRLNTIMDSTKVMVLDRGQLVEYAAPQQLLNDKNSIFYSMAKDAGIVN
row,Binder,Kd
1,B1,34.8 nM
2,B2,415 nM
3,B4,1.89 nM
4,B3,46100 nM
